This passage reports % of cells in the ROR1+ gate results from patent US20210085786A1.

The experiment deals with receptor tyrosine kinase-like orphan receptor 1 (ROR1) (human) (UniProt Q01973). In words: flow cytometry (FSC against control stain) of PDX tumour cells stained with the control antibody, same ROR1+ gate.
Chain of UniProt Q01973 (Q01973 30-937): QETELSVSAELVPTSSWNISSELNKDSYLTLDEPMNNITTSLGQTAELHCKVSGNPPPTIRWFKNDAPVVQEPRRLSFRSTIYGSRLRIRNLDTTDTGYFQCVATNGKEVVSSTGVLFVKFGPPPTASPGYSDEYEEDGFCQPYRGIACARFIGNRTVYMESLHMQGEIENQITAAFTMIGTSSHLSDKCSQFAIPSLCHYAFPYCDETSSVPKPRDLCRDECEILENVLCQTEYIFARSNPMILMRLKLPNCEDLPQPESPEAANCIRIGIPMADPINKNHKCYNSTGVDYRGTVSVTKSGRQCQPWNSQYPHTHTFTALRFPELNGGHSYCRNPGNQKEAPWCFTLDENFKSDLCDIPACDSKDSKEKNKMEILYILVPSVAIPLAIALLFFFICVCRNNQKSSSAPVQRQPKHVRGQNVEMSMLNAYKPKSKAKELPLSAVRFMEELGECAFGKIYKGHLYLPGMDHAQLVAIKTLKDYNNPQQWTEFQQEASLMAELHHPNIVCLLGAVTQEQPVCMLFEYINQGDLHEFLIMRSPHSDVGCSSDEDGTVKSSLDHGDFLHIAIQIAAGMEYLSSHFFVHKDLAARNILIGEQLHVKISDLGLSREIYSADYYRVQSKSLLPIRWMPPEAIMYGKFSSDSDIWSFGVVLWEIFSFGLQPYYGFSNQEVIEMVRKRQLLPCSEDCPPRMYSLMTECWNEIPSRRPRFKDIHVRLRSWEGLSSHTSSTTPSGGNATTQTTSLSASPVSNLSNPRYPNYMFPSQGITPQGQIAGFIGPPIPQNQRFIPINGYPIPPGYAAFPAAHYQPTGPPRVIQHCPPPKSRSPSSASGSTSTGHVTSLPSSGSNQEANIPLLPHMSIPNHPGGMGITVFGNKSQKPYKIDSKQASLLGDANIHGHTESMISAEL

On to Control (antibody), for which the % of cells in the ROR1+ gate came to 0.7%.
